Laboratory results taken from patent US20070015228A1.

Key:
human CD20 (human) [1] = biological target: human CD20 (human) (UniProt P11836); test: cell ELISA on CD20-transfected CHO clone C12M, suspension format, 300,000 cells/well
human CD20 (human) [2] = biological target: human CD20 (human) (UniProt P11836); test: Scatchard analysis, iodinated RITUXAN with unlabeled RITUXAN on adherent CHO clone 6D7 cells expressing human CD20 (n=3)
human CD20 (human) [3] = biological target: human CD20 (human) (UniProt P11836); test: cell ELISA on CD20-transfected CHO clone 2H3, suspension format, 300,000 cells/well
human CD20 (human) [4] = biological target: human CD20 (human) (UniProt P11836); test: Scatchard analysis, iodinated RITUXAN with unlabeled RITUXAN on adherent CHO clone C12M cells expressing human CD20 (n=3)
human CD20 (human) [5] = biological target: human CD20 (human) (UniProt P11836); test: cell ELISA on CD20-transfected CHO clone 1H6, suspension format, 300,000 cells/well
human CD20 (human) [6] = biological target: human CD20 (human) (UniProt P11836); test: Scatchard analysis, iodinated RITUXAN with unlabeled RITUXAN on CHO clone 2H3 cells in suspension (n=3)
human CD20 (human) [7] = biological target: human CD20 (human) (UniProt P11836); test: Scatchard analysis, iodinated RITUXAN with unlabeled RITUXAN on adherent CHO clone 4H10 cells expressing human CD20 (n=3)
human CD20 (human) [8] = biological target: human CD20 (human) (UniProt P11836); test: Scatchard analysis, iodinated RITUXAN with unlabeled RITUXAN on WIL2 cells in suspension (n=3)

human CD20 (human), sequence (P11836 whole entry): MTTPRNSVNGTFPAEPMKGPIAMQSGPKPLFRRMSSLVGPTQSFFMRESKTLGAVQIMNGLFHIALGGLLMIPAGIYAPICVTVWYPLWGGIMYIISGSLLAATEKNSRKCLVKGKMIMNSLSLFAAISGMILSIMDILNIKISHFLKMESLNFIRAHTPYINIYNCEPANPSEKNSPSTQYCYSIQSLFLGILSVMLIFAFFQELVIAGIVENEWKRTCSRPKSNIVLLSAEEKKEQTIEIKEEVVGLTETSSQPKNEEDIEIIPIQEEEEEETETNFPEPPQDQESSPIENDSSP

- EC50 (read off the curve) (human CD20 (human) [1]): 0.2 µg/mL
- Kd (human CD20 (human) [2]): 5.97 nM
- EC50 (read off the curve) (human CD20 (human) [3]): 0.2 µg/mL
- Kd (human CD20 (human) [4]): 13.7 nM
- EC50 (read off the curve) (human CD20 (human) [5]): 0.2 µg/mL
- Kd (human CD20 (human) [6]): 8.57 nM
- Kd (human CD20 (human) [7]): 5.5 nM
- Kd (human CD20 (human) [8]): 3.91 nM
Substance: RITUXAN® (rituximab) (antibody)
